Data: patent US9505841B2, “Use of an anti-Ang2 antibody” (Samsung Electronics Co., Ltd., priority 2013, dated 2016)

How the values were obtained:
[1] = test system: lymphatic endothelial cells; test: BrdU proliferation assay, lymphatic endothelial cells; format: cell-based; settings: 2 ug/ml Ang2 with 10 ug/ml antibody; 3 days
Protocol: The measurement assay of the proliferation of vascular and lymphatic endothelial cells was conducted using a BrdU assay kit (Roche) Cell. Vascular endothelial cells of P3˜P8 (HUVEC, ATCC) or lymphatic endothelial cells (Lonza) were placed in a collagen-coated 96-well plate (BD Bioscience) at 3000˜5000 cells/well and cultured in EGM-2 media (Lonza) for 16˜24 hours. A mixture of 2 ug/ml of Ang2 (R&D systems) and 10 ug/ml of antibody 10D6 in 2% EBM media was added to the 96-well plate washed with PBS, which was then cultured for 3 days.
For efficiency comparison, an anti-Ang2 antibody (MEDI: Medlmmune Co.) was used. For a BrdU assay, 10 ul of BrdU solution diluted at 1:1,000 was added to each well of the plate to label the cells. The cells were cultured for 1 hour and after the removal of the culture solution, 100 ul of Fixation/Denaturation solution (Roche) was added to each well and then, removed after 30-min wait. An anti-BrdU antibody (Roche) conjugated with peroxidase was diluted in a dilution buffer (Roche) at 1:100, added to each well to react for 1 hour and then, washed four times using a washing buffer (Roche). 100 ul of a TMB substrate was added thereto to react and then, absorption was measured at 450 nm using a Microplate reader (Perkin Elmer).

Tie2 receptor = test: Tie2, Akt and 42/44 phosphorylation in HUVEC: antibody 10D6 versus 10D6 Fab; format: cell-based, human; settings: 60 nM 10D6 antibody or 10D6 Fab with 40 nM Ang2
Protocol: To see whether the activation of a Tie2 receptor is resulted from the dimerization of antibody 10D6, Fab fragments of antibody 10D6 were purified and then used for this experiment. The Fab fragments were obtained from antibody 10D6 using an Fab Preparation Kit (Pierce). As a digestion buffer, PBS containing 20 mM EDTA and 20 mM L-Cysteine was used, and the antibody was separated into Fab and Fc by the treatment with an immobilized papain at a room temperature for 2 hours. The Fc fragments were removed from the reaction solution using MabSelectSuRe column (GE Healthcare) to isolate and purify pure Fab fragments only.
HUVEC (ATCC) cells (1×10^6) were cultured in a 100 mm culture dish using EGM-2 (Lonza) media at 37° C. and when they reached 80˜90% confluency, the media were replaced with serum-free media (Lonza) and cultured at 37° C. for 6 to 16 hours. The dish was washed once with PBS and after the replacement with […] sodium orthovanadate (Sigma)-mixed serum free media (Lonza), they were further cultured for 10 min. After washed once with PBS, the cultured cells were treated with a mixture prepared by mixing 60 nM of 10D6 Ang2 antibody or 10D6 Fab with 40 nM of Ang2 protein (R&D systems) and letting them stand for 20 min. and further cultured for 10 min. […]

[2] = test system: LLC (Lewis Lung Carcinoma); test: LLC tumor growth model; format: in vivo, mouse; settings: LLC in C57BL/6 mice; 10 mg/kg intraperitoneal three times a week; control Fc of IgG1
Protocol: To see the tumor growth inhibitory effects of Ang2 antibody, a […] Xenograft model using a LLC (Lewis Lung Carcinoma) was employed.
LLC cells (ATCC) were cultured using 10% FBS (Gibco)-supplemented DMEM (Gibco) media. 1×10^6 of LLC cells were re-suspended in 100 ul of PBS (Gibco) and then subcutaneously injected into 6˜8-week-old C57BL/6 mice (Jackson Laboratory) anesthetized with 1˜2% isoflurane.
When the size of tumors reached 50˜100 mm^3, anti-Ang2 antibody (10D6) was injected at the concentration of 10 mg/kg via an intraperitoneal injection three times a week and the size of the tumors was measured.
The size of tumor (V) was calculated using the following formula: Volume (V)=(width)2×length/2
For comparison, the same experiment was performed to a control group treated with Fc of IgG1 and a comparative group treated with antibody 4H10 (refer to Example 3).

B1: 10D6: mouse anti-Ang2 monoclonal antibody from hybridoma KCLRF-BP-00295; heavy chain variable region SEQ ID NO: 7, light chain variable region SEQ ID NO: 9 (antibody, V domains shown)
VH: DVQLQESGPGLVKPSQSLSLTCTVTGYSITSDYAWNWIRQFPGNKLEWMGYINYSGNTDYNPSLKSRSSITRDTSKNQFFLQLNSVTTGDTATYYCARGNFEGAMDYWGQGTSVTVSS
VL: SIVMTQTPKFLLVSAGDRVTITCKASQSVSNDVAWYQQKPGQSPKLLIYYASNRYPGVPDRFTGSGYGTDFTFTISTVQAEDLAVYFCQQDYSSPWTFGGGTKLEIK
modifications: Synthetic (Heavy chain variable region of an anti-Ang2 antibody); Synthetic (Light chain variable region of anti-Ang2 antibody)
Question: How did the “growth of lymphatic endothelial cells (BrdU)” value [1] turn out when B1 was run?
Answer: Its value is “increased”.

Question: What about the “phosphorylation of Tie2, Akt and 42/44” value (Tie2 receptor) of the same molecule?
Answer: Its value is “occurred”.

Question: And the “inhibition of growth of the tumor compared to the control group” value [2]?
Answer: The value was “about 40%”.
